Usually Kd stands for a measure of binding affinity in units of concentration. A low value points to tighter binding.

Among the data in publication PMC9232852 (2022) are Kd values, retold here.

One experiment concerns the target T1, BTN2A1 ID271 (Homo sapiens, UniProt Q7KYR7).
T1 chain: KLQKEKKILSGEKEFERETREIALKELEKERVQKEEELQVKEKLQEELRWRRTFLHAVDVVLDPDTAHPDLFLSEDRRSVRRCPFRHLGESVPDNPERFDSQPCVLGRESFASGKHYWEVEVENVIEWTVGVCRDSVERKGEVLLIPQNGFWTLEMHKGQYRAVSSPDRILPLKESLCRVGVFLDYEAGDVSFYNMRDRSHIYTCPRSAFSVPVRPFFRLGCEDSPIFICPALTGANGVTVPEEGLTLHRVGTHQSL
The experiment can be described thus: ITC.

A further experiment deals with T2, BTN2A1 ID309 (Homo sapiens, UniProt Q7KYR7).
T2 chain: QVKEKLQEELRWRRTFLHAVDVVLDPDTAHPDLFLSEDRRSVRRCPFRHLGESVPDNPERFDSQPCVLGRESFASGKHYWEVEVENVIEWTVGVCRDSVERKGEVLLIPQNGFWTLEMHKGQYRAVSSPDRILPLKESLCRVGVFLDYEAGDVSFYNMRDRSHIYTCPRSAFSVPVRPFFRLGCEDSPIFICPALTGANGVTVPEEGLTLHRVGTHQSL
The experiment can be described thus: ITC. On the technique in general: Isothermal titration calorimetry measures the heat released or taken up as one component is titrated into another.

B1: BTN3A1 B30.2 (protein)
chain: not shown
modifications: HMBPP
In the experiment with BTN2A1 ID271, B1 returned a Kd of 463 nM.

B2: BTN3A1 BFI (full intracellular domain) (protein)
chain: not shown
modifications: HMBPP
B2: the Kd with BTN2A1 ID309 was 674 nM; with BTN2A1 ID271, 886 nM.
